Source: article PMC5789954 (Proceedings of the National Academy of Sciences of the …, 2018)

Molecular target: the molecule itself
Assay: SEC

| Protein | stoichiometry N |
| --- | --- |
| CUB1-EGF-CUB2 fragment of C1r (domain or fragment, UniProt P00736 18-307, looked up, N-linked carbohydrate at two sites (density seen in the crystals)) SIPIPQKLFGEVTSPLFPKPYPNNFETTTVITVPTGYRVKLVFQQFDLEPSEGCFYDYVKISADKKSLGRFCGQLGSPLGNPPGKKEFMSQGNKMLLTFHTDFSNEENGTIMFYKGFLAYYQAVDLDECASRSKSGEEDPQPQCQHLCHNYVGGYFCSCRPGYELQEDTHSCQAECSSELYTEASGYISSLEYPRSYPPDLRCNYSIRVERGLTLHLKFLEPFDIDDHQQVHCPYDQLQIYANGKNIGEFCGKQRPPDLDTSSNAVDLLFFTDESGDSRGWKLRYTTEII | 2 |
| CUB1-EGF-CUB2 fragment of C1s (domain or fragment, N-linked carbohydrate at one site (density seen in the crystals)) EPTMYGEILSPNYPQAYPSEVEKSWDIEVPEGYGIHLYFTHLDIELSENCAYDSVQIISGDTEEGRLCGQRSSNNPHSPIVEEFQVPYNKLQVIFKSDFSNEERFTGFAAYYVATDINECTDFVDVPCSHFCNNFIGGYFCSCPPEYFLHDDMKNCGVNCSGDVFTALIGEIASPNYPKPYPENSRCEYQIRLEKGFQVVVTLRREDFDVEAADSAGNCLDSLVFVAGDRQFGPYCGHGFPGPLNIETKSNALDIIFQTDLTGQKKGWKLRYHGDPM | 2 |
